Measurements published in article PMC10192527, “A metal ion-dependent mechanism of RAD51 nucleoprotein filament disassembly”.

B1: R51-14:R51-15 (post-synaptic filament DNA) (dsDNA)
DNA 1: TGGAGGTGCATCGAGCTCGCGACAAACCTTCTATGTTGAGCGTCAGTCGG
DNA 2: CCGACTGACGCTCAACATAGGTACCACACGGCGAGCTCGATGCACCTCCA
B2: x60 ssDNA 60mer (ssDNA)
DNA: ATGGTGTGTGTAGGTTAATGTGAGGAGGAGAGGTGAAGAAGGAGGAGAGAAGAAGGAGGC

Experiments:
RAD51 [1] = molecular target: T1, RAD51 (Homo sapiens, UniProt Q06609 1-339); assay: cryo-EM structure; ATP, Ca2+ (post-synaptic filament; second metal ion present); EMSA: 25 mM HEPES pH 7.5, 150 mM NaCl, 2 mM DTT, 5 mM CaCl2, 2 mM ATP or 0.5-10 mM ADP, 25 C 15 min; 0.5% agarose in 0.5x TB at 4 C; details: protein: recombinant; tags: none stated on the final protein; co-expressed with His6-MBP-BRCA2 BRC4 (pMBP4-RAD51); chain copies: 16; blunt ends, internal 10-nt mismatched bubble
T1 sequence (Q06609 whole entry): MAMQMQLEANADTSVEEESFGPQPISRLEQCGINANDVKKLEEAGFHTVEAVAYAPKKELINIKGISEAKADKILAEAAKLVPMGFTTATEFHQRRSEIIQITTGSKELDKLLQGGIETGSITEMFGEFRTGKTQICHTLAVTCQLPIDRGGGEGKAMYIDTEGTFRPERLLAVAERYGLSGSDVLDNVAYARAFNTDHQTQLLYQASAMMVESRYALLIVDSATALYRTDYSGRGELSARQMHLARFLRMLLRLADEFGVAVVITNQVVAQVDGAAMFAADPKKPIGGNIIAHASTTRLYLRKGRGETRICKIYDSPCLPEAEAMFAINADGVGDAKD

RAD51 [2] = molecular target: T1, RAD51; assay: cryo-EM structure (3.8 A); Ca2+, ATP (pre-synaptic filament; two Ca2+ per ATP site); EMSA: 25 mM HEPES pH 7.5, 150 mM NaCl, 2 mM DTT, 5 mM CaCl2, 2 mM ATP or 0.5-10 mM ADP, 25 C 15 min; 0.5% agarose in 0.5x TB at 4 C; details: protein: recombinant; tags: none stated on the final protein; co-expressed with His6-MBP-BRCA2 BRC4 (pMBP4-RAD51); chain copies: 10; single strand

Binder | binding result (RAD51 [1]) | binding result (RAD51 [2])
B1 | binds | –
B2 | – | binds
